In data set [1] the test system is T1, MG29-1 (uncultivated microorganism (metagenomic)).
T1 sequence: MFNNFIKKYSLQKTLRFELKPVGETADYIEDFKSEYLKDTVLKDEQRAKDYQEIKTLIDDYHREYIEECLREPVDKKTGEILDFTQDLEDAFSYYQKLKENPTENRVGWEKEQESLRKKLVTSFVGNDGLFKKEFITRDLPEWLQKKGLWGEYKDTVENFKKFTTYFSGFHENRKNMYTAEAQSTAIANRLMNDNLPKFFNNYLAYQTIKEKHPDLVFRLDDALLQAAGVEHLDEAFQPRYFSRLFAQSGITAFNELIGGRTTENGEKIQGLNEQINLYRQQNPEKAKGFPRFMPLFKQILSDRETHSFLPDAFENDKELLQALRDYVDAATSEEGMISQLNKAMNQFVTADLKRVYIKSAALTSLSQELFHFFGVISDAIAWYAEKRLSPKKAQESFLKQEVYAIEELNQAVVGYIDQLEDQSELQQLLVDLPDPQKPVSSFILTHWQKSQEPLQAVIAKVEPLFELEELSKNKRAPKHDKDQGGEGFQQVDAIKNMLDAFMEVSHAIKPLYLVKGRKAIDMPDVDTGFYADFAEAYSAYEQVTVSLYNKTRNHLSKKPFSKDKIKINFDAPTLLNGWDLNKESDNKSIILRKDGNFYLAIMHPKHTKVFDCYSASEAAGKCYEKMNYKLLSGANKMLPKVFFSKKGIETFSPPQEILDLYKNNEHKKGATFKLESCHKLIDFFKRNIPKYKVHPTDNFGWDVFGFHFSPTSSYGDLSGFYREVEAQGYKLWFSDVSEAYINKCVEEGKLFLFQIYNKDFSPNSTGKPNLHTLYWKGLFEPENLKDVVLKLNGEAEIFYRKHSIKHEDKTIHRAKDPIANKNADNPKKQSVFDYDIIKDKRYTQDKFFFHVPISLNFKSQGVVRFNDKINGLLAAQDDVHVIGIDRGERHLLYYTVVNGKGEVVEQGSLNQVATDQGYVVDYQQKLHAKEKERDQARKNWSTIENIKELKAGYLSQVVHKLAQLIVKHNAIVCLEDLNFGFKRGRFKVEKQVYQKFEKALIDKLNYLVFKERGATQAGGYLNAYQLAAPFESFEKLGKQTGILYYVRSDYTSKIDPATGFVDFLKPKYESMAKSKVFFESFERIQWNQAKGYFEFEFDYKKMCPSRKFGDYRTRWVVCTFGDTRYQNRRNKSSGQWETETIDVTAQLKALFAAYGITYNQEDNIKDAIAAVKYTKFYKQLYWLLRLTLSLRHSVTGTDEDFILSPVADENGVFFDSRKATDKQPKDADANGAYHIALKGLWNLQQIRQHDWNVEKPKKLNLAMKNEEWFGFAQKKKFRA
Nature of the data set: cell_activity.

The test system of data set [2] is T2, MG31-1 (uncultivated microorganism (metagenomic)).
T2 sequence: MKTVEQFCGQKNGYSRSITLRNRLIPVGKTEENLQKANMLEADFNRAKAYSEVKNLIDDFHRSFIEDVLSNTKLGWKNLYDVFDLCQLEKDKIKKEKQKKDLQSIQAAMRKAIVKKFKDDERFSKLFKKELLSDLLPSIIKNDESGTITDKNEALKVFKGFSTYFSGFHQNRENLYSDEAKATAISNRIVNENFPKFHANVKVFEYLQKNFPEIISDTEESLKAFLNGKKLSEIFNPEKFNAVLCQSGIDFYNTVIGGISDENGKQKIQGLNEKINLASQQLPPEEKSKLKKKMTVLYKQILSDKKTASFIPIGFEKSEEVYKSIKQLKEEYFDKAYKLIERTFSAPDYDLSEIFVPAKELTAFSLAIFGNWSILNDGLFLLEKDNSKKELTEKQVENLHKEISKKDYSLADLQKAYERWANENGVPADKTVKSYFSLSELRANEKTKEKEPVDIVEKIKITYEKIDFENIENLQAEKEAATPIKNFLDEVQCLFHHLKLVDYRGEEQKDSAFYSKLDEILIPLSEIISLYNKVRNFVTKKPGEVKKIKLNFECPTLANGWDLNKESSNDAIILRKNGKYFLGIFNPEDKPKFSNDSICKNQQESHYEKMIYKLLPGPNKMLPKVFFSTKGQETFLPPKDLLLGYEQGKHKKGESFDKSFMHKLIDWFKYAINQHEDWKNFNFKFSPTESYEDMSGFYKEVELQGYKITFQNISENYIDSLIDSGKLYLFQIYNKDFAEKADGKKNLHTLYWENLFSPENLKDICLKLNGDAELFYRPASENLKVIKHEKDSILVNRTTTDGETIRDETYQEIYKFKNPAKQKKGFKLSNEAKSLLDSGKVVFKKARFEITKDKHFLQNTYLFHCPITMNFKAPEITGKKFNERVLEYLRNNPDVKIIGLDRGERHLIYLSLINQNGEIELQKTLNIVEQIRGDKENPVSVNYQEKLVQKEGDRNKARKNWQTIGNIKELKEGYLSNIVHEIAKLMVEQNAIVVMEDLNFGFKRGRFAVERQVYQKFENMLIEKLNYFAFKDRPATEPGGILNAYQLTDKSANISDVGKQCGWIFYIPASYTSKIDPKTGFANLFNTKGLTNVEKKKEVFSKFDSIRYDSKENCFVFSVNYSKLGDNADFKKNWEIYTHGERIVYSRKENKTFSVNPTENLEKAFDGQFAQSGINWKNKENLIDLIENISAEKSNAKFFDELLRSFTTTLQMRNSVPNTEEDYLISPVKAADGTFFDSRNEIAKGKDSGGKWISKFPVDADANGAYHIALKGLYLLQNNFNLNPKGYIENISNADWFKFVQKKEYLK
Nature of the data set: cell_activity. The conditions noted are these: HEK cells.

As to “AAUUUCUACUAUUGUAGAUNCCGAUCGUUACAGGAAAAUCUG / GTTCCCGATCGTTACAGGAAAATCTG / CAGATTTTCCTGTAACGATCGGGAAC [mAlb29-1-2 sgRNA ; mouse albumin intron 1 mAlb29-1-2 site]”, in data set [1] (PAM GTTC, Hepa1-6 RNP nucleofection, guide backbone inferred), the activity was 0 % indel.
With “AAUUUCUACUAUUGUAGAUNCGCACUAAGGAAAGUGCAAAGU / TTTGCGCACTAAGGAAAGTGCAAAGT / ACTTTGCACTTTCCTTAGTGCGCAAA [hAlb_g87 sgRNA ; human albumin intron 1 g87 site]”, the activity in data set [1] (PAM TTTG, RNP nucleofection HepG2, guide backbone inferred) was 97 % indel.
As to “AAUUUCUACUAUUGUAGAUNCUUGGACCUUGUUUUGCUUACUGU / ACAAATTTTACTTGGACCTTGTTTTGCTTACTGT / ACAGTAAGCAAAACAAGGTCCAAGTAAAATTTGT”, the activity in data set [2] (PAM TTTA, SD 0.75) was -0.32 % NHEJ.
Regarding “AAUUUCUACUAUUGUAGAUNGAAAGGGGGUGGGGGGAGUUUGCU / ATGGGCTTTGGAAAGGGGGTGGGGGGAGTTTGCT / AGCAAACTCCCCCCACCCCCTTTCCAAAGCCCAT [MG29-1 guide VEGFA target8 ; VEGFA target8]”, the activity in data set [1] (PAM KTTG (TTTG), HEK293T plasmid transfection, SD 10.17) turned out to be 30.1 % NHEJ.
For the sequence “AAUUUCUACUAUUGUAGAUNGCCAGAGCCGGGGUGUGCAGACGG / TCCCTCTTTAGCCAGAGCCGGGGTGTGCAGACGG / CCGTCTGCACACCCCGGCTCTGGCTAAAGAGGGA [MG31-1 guide VEGFA target9 ; VEGFA target9]”, the activity in data set [2] (PAM YTTn (TTTA), SD 1.92) is 6.72 % NHEJ.
In the case of “AAUUUCUACUAUUGUAGAUNGGAGGUCAGAAAUAGGGGGUCCAG / TAGCTGTTTGGGAGGTCAGAAATAGGGGGTCCAG / CTGGACCCCCTATTTCTGACCTCCCAAACAGCTA [MG31-1 guide VEGFA target7 ; VEGFA target7]”, in data set [2] (PAM YTTn (TTTG), SD 8.67), the activity came to 17.4 % NHEJ.
As to “AAUUUCUACUAUUGUAGAUNUGAAGUCUUACAAGGUUAUCUUAU / TTTGTATTTGTGAAGTCTTACAAGGTTATCTTAT / ATAAGATAACCTTGTAAGACTTCACAAATACAAA [MG31-1 guide albumin target4 ; Albumin target4]”, the activity in data set [2] (PAM YTTn (TTTG), SD 2.72) is 7.05 % NHEJ.
For the sequence “AAUUUCUACUAUUGUAGAUNUGUGAGGGAGCACCGUUCUCUAGA / TACATAGTTGTGTGAGGGAGCACCGTTCTCTAGA / TCTAGAGAACGGTGCTCCCTCACACAACTATGTA”, in data set [1] (PAM KTTG (GTTG), HEK293T plasmid transfection, SD 1.57), the activity stood at 30.4 % NHEJ.

Values taken from patent publication US20240218339.
